The record followed here is US20200164064A1 (Hoffmann-La Roche, published 2020).

This assay deals with T1, Ac-PYY(PEG3-Dig) (N-terminal acetyl; Lys 2 side chain carries PEG3-digoxigenin (digoxigenin-3-carboxymethyl on 12-amino-4,7,10-trioxadodecanoic acid); Pqa at position 3; N-methyl-Arg at position 14; C-terminal amide).
T1 construct: also called DIG-PYY; Dig-PYY
T1 peptide: IKXRHYLNWVTRQXY
In words: size exclusion chromatography and SEC-MALS of the non-covalent complex. (Size exclusion chromatography separates by hydrodynamic size, large species first.)

Description: After completion of the complexation reaction, the complexes were purified by size exclusion chromatography via a Superdex 200 26/60 GL column (320 ml) in 20 mM histidine, 140 mM NaCl, at pH 6.0 at a flow rate of 2.5 ml/min. […] Polypeptide and antibody were incubated for 1.5 hrs. at room temperature. The excess of polypeptide was removed by size exclusion chromatography via a Superose 6 10/300 GL column in 20 mM histidine, 140 mM NaCl, at pH 6.0 at a flow rate of 0.5 ml/min.
For SEC-MALS analysis, 100-500 μg of the respective sample was applied to a Superdex 200 10/300 GL size exclusion column with a flow rate of 0.25-0.5 ml/min with 1×PBS pH 7.4 as mobile phase. Light scattering was detected with a Wyatt miniDawn TREOS/QELS detector, the refractive index was measured with a Wyatt Optilab rEX-detector. Resulting data was analyzed using the software ASTRA (version 5.3.4.14).

B1: murine anti-digoxigenin antibody (hybridoma-derived) (antibody, mouse IgG1, V domains shown)
VH: EVQLVESGGGLVKPGGSLKLSCAVSGFTFSDYAMSWIRQTPENRLEWVASINIGATYAYYPDSVKGRFTISRDNAKNTLFLQMSSLGSEDTAMYYCARPGSPYEYDKAYYSMAYWGPGTSVTVSS
VL: DVQMTQSTSSLSASLGDRVTISCRASQDIKNYLNWYQQKPGGTVKLLIYYSSTLLSGVPSRFSGRGSGTDFSLTITNLEREDIATYFCQQSITLPPTFGGGTKLEIK
notes: also called murine hybridoma-derived antibody
Consider B1, for which the binding result is “binds”.
